For the assay, the target named is human thrombopoietin receptor (human c-Mpl) (human) (UniProt P40238). The experiment in a line: cell-based or functional assay.

For the substance “PEG-rHuMGDF (Pegylated Recombinant Human Megakaryocyte Growth and Development Factor) (ligand)”, the UT7/TPO (Max) is 100%.
